Measured values reported in patent US10705101B2, “Determination of the unbound free fatty acid profiles in biological and industrial specimens” (priority 2013, dated 2020).

assay: Probe response profile / specificity for different FFAu at 1 nM; assay type: binding; settings: FFAu giving the largest response to 1 nM of each FFAu; several listed in order of degree of specificity
Text: The abbreviations are: arachidonate (AA), docosahexaenoate (DHA), eicosapentaenoate (EPA), laurate (LAU), linoleate (LA), linolenate (LNA), myristate (MA), oleate (OA), palmitate (PA), palmitoleate (POA), stearate (SA), and vaccenate (VA).
Examples of probes used, generally in groups of 10 or more, to determine FFAu profiles in biological samples such as blood plasma or serum from animals and humans or media from microorganisms are shown in Table 2. In the sequences presented in Table 2 and the sequence listing, amino acids are numbered from the first residue of the mature protein. The initiator methionine residue of the wild-type protein is removed by aminopeptidase activity, leaving an alanine as residue 1. Thus, counting backwards and skipping 0, the initiator methionine is at residue position −1. Specificity indicates the FFAu that gives the largest response to 1 nM of each FFAu when one FFAu dominates the profile and more than one when there is a more even distribution of specificity. Where more than one is indicated they are listed in order of degree of specificity. The abbreviations are: arachidonate (AA), docosahexaenoate (DHA), eicosapentaenoate (EPA), laurate (LAU), linoleate (LA), linolenate (LNA), myristate (MA), oleate (OA), palmitate (PA), palmitoleate (POA), stearate (SA), and vacsinate (VA). The sequences indicate mutations relative to SEQ ID NO: 1. This sequence is a mutated rat intestinal fatty acid binding protein with a Glu 131 to Asp substitution and includes a COOH-terminal affininity tag comprising […], Gly 133 and 6 histidines.
The response profile is the fluorescence change as evaluated as (R−Ro)/Ro (ΔR/Ro) for each FFAu added as a complex of the FFA and albumin so that the FFAu concentration is clamped or buffered at 1 nM for every FFAu for which a calibration has been performed. The calculation is performed simply by rearranging equation 2 to solve for ΔR/Ro. […] However all the probes have different profiles and therefore complementary specificities for different FFAu. Abbreviations are as in Table 2.

| Molecule | Specificity |
| --- | --- |
| L9BP6 H3: acrylodan-labeled mutant FABP probe: L38Y, F62W, L72A, Y117A (protein, UniProt P02693 2-132, looked up, variant L38Y F62W L72A Y117A, acrylodan label, acrylodan-labeled mutant FABP probe: L38Y, F62W, L72A, Y117A) Fatty acid-binding protein, …: AFDGTWKVDRNENYEKFMEKMGINVVKRKLGAHDNLKYTITQEGNKFTVKESSNFRNIDVVWELGVDFAYSAADGTELTGTWTMEGNKLVGKFKRVDNGKELIAVREISGNELIQTATYEGVEAKRIFKKE | SA/OA/PA |
| L10P7 A4: acrylodan-labeled mutant FABP probe: Y14L, M18L, G31Y, A73L, Y117A (protein, UniProt P02693 2-132, looked up, variant Y14L M18L G31Y A73L Y117A, acrylodan label, acrylodan-labeled mutant FABP probe: Y14L, M18L, G31Y, A73L, Y117A) Fatty acid-binding protein, …: AFDGTWKVDRNENLEKFLEKMGINVVKRKLYAHDNLKLTITQEGNKFTVKESSNFRNIDVVFELGVDFAYSLLDGTELTGTWTMEGNKLVGKFKRVDNGKELIAVREISGNELIQTATYEGVEAKRIFKKE | AA/DHA/OA/EPA/LA |
| L33P3 F9: acrylodan-labeled mutant FABP probe: M18L, I23L, G31N, L72W, A73T, D74A, R106A, Q115E, Y117V (protein, UniProt P02693 2-132, looked up, variant M18L I23L G31N L72W A73T D74A R106A Q115E Y117V, acrylodan label, acrylodan-labeled mutant FABP probe: M18L, I23L, G31N, L72W, A73T, D74A, R106A, Q115E, Y117V) Fatty acid-binding protein, …: AFDGTWKVDRNENYEKFLEKMGLNVVKRKLNAHDNLKLTITQEGNKFTVKESSNFRNIDVVFELGVDFAYSWTAGTELTGTWTMEGNKLVGKFKRVDNGKELIAVAEISGNELIETVTYEGVEAKRIFKKE | DHA/AA |
| L35P10C4: acrylodan-labeled mutant FABP probe: M18L, G31N, L36Y, L72W, A73T, D74A, R106A, Q115E, Y117V (protein, UniProt P02693 2-132, looked up, variant M18L G31N L36Y L72W A73T D74A R106A Q115E Y117V, acrylodan label, acrylodan-labeled mutant FABP probe: M18L, G31N, L36Y, L72W, A73T, D74A, R106A, Q115E, Y117V) Fatty acid-binding protein, …: AFDGTWKVDRNENYEKFLEKMGINVVKRKLNAHDNYKLTITQEGNKFTVKESSNFRNIDVVFELGVDFAYSWTAGTELTGTWTMEGNKLVGKFKRVDNGKELIAVAEISGNELIETVTYEGVEAKRIFKKE | DHA/AA |
| L35P22E8: acrylodan-labeled mutant FABP probe: M18L, I23L, G31N, L36R, L38V, L72W, A73T, D74A, R106A, Q115E, Y117V (protein, UniProt P02693 2-132, looked up, variant M18L I23L G31N L36R L38V L72W A73T D74A R106A Q115E Y117V, acrylodan label, acrylodan-labeled mutant FABP probe: M18L, I23L, G31N, L36R, L38V, L72W, A73T, D74A, R106A, Q115E, Y117V) Fatty acid-binding protein, …: AFDGTWKVDRNENYEKFLEKMGLNVVKRKLNAHDNRKVTITQEGNKFTVKESSNFRNIDVVFELGVDFAYSWTAGTELTGTWTMEGNKLVGKFKRVDNGKELIAVAEISGNELIETVTYEGVEAKRIFKKE | DHA/AA |
| L36P15 B7-1: acrylodan-labeled mutant FABP probe: M18L, I23V, G31N, F55R, L72W, A73T, D74A, R106A, Q115E, Y117V (protein, UniProt P02693 2-132, looked up, variant M18L I23V G31N F55R L72W A73T D74A R106A Q115E Y117V, acrylodan label, acrylodan-labeled mutant FABP probe: M18L, I23V, G31N, F55R, L72W, A73T, D74A, R106A, Q115E, Y117V) Fatty acid-binding protein, …: AFDGTWKVDRNENYEKFLEKMGVNVVKRKLNAHDNLKLTITQEGNKFTVKESSNRRNIDVVFELGVDFAYSWTAGTELTGTWTMEGNKLVGKFKRVDNGKELIAVAEISGNELIETVTYEGVEAKRIFKKE | HA/AA/EPA |
| L37P1 C3: acrylodan-labeled mutant FABP probe: Y14W, M18L, M21I, I23L, G31N, L38V, L72W, A73T, D74A, R106A, Q115E, Y117V (protein, UniProt P02693 2-132, looked up, variant Y14W M18L M21I I23L G31N L38V L72W A73T D74A R106A Q115E Y117V, acrylodan label, acrylodan-labeled mutant FABP probe: Y14W, M18L, M21I, I23L, G31N, L38V, L72W, A73T, D74A, R106A, Q115E, Y117V) Fatty acid-binding protein, …: AFDGTWKVDRNENWEKFLEKIGLNVVKRKLNAHDNLKVTITQEGNKFTVKESSNFRNIDVVFELGVDFAYSWTAGTELTGTWTMEGNKLVGKFKRVDNGKELIAVAEISGNELIETVTYEGVEAKRIFKKE | AA/DHA/EPA |
| L44P1 C10: acrylodan-labeled mutant FABP probe: Y14L, M18L, I23L, G31N, L72G, A73T, D74A, R106W, Q115W, Y117L (protein, UniProt P02693 2-132, looked up, variant Y14L M18L I23L G31N L72G A73T D74A R106W Q115W Y117L, acrylodan label, acrylodan-labeled mutant FABP probe: Y14L, M18L, I23L, G31N, L72G, A73T, D74A, R106W, Q115W, Y117L) Fatty acid-binding protein, …: AFDGTWKVDRNENLEKFLEKMGLNVVKRKLNAHDNLKLTITQEGNKFTVKESSNFRNIDVVFELGVDFAYSGTAGTELTGTWTMEGNKLVGKFKRVDNGKELIAVWEISGNELIWTLTYEGVEAKRIFKKE | PA/OA/SA |
| L50BP4 E2: acrylodan-labeled mutant FABP probe: M18L, M21F, I23F, K27C, G31N, L72T, A73T, D74A, T76F (protein, UniProt P02693 2-132, looked up, variant M18L M21F I23F K27C G31N L72T A73T D74A T76F, acrylodan label, acrylodan-labeled mutant FABP probe: M18L, M21F, I23F, K27C, G31N, L72T, A73T, D74A, T76F) Fatty acid-binding protein, …: AFDGTWKVDRNENYEKFLEKFGFNVVCRKLNAHDNLKLTITQEGNKFTVKESSNFRNIDVVFELGVDFAYSTTAGFELTGTWTMEGNKLVGKFKRVDNGKELIAVREISGNELIQTYTYEGVEAKRIFKKE | PA/MA |
| L50BP9 D5: acrylodan-labeled mutant FABP probe: M18L, M21F, I23L, K27C, G31N, L72S, A73T, D74A, T76I, Y117N (protein, UniProt P02693 2-132, looked up, variant M18L M21F I23L K27C G31N L72S A73T D74A T76I Y117N, acrylodan label, acrylodan-labeled mutant FABP probe: M18L, M21F, I23L, K27C, G31N, L72S, A73T, D74A, T76I, Y117N) Fatty acid-binding protein, …: AFDGTWKVDRNENYEKFLEKFGLNVVCRKLNAHDNLKLTITQEGNKFTVKESSNFRNIDVVFELGVDFAYSSTAGIELTGTWTMEGNKLVGKFKRVDNGKELIAVREISGNELIQTNTYEGVEAKRIFKKE | PA/POA/MA |
| L76P9 E4: acrylodan-labeled mutant FABP probe: Y14L, M18Y, I23T, K27L, L30C, G31I, L72G, A73I, D74A, L78V, W82P, G91S, F93M, A104F, R106L, Y117L, Q115A (protein, UniProt P02693 2-132, looked up, variant Y14L M18Y I23T K27L L30C G31I L72G A73I D74A L78V W82P G91S F93M A104F R106L Y117L Q115A, acrylodan label, acrylodan-labeled mutant FABP probe: Y14L, M18Y, I23T, K27L, L30C, G31I, L72G, A73I, D74A, L78V, W82P, G91S, F93M, A104F, R106L, Y117L, Q115A) Fatty acid-binding protein, …: AFDGTWKVDRNENLEKFYEKMGTNVVLRKCIAHDNLKLTITQEGNKFTVKESSNFRNIDVVFELGVDFAYSGIAGTEVTGTPTMEGNKLVSKMKRVDNGKELIFVLEISGNELIATLTYEGVEAKRIFKKE | OA/VA/SA/LA |
| L118P4 H5: acrylodan-labeled mutant FABP probe: Y14W, M18Q, K27C, L72A, D74Q, R106W (protein, UniProt P02693 2-132, looked up, variant Y14W M18Q K27C L72A D74Q R106W, acrylodan label, acrylodan-labeled mutant FABP probe: Y14W, M18Q, K27C, L72A, D74Q, R106W) Fatty acid-binding protein, …: AFDGTWKVDRNENWEKFQEKMGINVVCRKLGAHDNLKLTITQEGNKFTVKESSNFRNIDVVFELGVDFAYSAAQGTELTGTWTMEGNKLVGKFKRVDNGKELIAVWEISGNELIQTYTYEGVEAKRIFKKE | DHA |
| L128P18 A7: acrylodan-labeled mutant FABP probe: Y14W, M18L, M21I, I23L, K27C, G31G, L38V, S71M, L72W, A73T, D74P, A104I, R106A, Q115E, Y117V (protein, UniProt P02693 2-132, looked up, variant Y14W M18L M21I I23L K27C G31G L38V S71M L72W A73T D74P A104I R106A Q115E Y117V, acrylodan label, acrylodan-labeled mutant FABP probe: Y14W, M18L, M21I, I23L, K27C, G31G, L38V, S71M, L72W, A73T, D74P, A104I, R106A, Q115E, Y117V) Fatty acid-binding protein, …: AFDGTWKVDRNENWEKFLEKIGLNVVCRKLGAHDNLKVTITQEGNKFTVKESSNFRNIDVVFELGVDFAYMWTPGTELTGTWTMEGNKLVGKFKRVDNGKELIIVAEISGNELIETVTYEGVEAKRIFKKE | DHA/AA |
